Measured values: patent publication US10005846B2, “Anti-transglutaminase 2 antibodies” (MEDICAL RESEARCH COUNCIL TECHNOLOGY, priority 2012, dated 2018)

Key:
[1] = molecular target: T1, human TG2 (Homo sapiens, UniProt P21980); assay: 3H-putrescine incorporation TG activity assay with recombinant human TG2; assay type: biochemical
T1 sequence (P21980 1-687): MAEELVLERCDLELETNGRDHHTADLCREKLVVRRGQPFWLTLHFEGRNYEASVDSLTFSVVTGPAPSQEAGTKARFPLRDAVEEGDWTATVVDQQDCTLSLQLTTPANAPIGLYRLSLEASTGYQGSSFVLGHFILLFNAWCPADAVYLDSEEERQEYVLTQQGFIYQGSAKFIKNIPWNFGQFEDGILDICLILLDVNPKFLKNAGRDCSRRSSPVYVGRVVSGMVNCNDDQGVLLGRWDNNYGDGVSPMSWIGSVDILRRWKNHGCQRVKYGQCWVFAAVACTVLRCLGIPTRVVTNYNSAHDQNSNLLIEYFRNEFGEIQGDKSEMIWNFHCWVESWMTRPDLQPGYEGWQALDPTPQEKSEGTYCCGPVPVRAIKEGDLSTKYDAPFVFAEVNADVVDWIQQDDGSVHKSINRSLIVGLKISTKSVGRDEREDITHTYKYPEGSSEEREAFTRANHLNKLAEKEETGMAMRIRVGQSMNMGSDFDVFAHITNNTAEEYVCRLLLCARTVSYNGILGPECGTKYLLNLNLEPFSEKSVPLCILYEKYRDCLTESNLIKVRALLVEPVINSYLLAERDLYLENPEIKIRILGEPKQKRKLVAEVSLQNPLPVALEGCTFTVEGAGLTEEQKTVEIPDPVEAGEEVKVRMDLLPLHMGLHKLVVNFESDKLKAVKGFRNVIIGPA
Protocol: To determine an IC50 value for each antibody against human, rat and mouse the ^3H Putrescine assay was used. 100 ng of human TG2 or 25 ng of mouse and rat TG2 was used to generate a reaction where approximately 3000 cpm of Putrescine were incorporated per hour in 10 ul of the reaction mixture. Serial dilutions of each antibody were then applied starting from adding 500 ng (5 ug/ml final concentration) to the reaction mixture and incubated with the TG2 for 20 minutes prior to activating the reaction. IC50 values were calculated by determining the concentration at which the enzymatic rate of reaction was reduced by 50% using an appropriate curve fit in graphpad prism. Values are expressed as the amount of IgG in […] in the reaction that would inhibit 1 ng of TG2.
TG activity is measured by the Ca^2+ dependent incorporation of ^3H-putrescine into N′,N′-dimethylcasein. Recombinant human TG2 (100 ng) was pre-incubated for twenty minutes at room temperature with the test sample (conditioned medium or purified IgG) before starting the reaction. Twenty-five μl of reaction mix (5 μl of 25 mM CaCl2, 5 μl of 40 mM dithiothreitol, 5 μl ^3H-putrescine mix, and 10 μl 25 mg/ml of N,N′ dimethylcasein (replace 25 mM CaCl2 with 100 mM EDTA for a non-enzymatic control) was added to start the reaction and the samples incubated at 37° C. for up to 1 hour. Aliquots of 10 μl were spotted onto a strip of 3 MM Whatman filter paper and plunged immediately into ice-cold 10% trichloroacetic acid (TCA) in order to precipitate the cross-linked proteins typically at time 0, 10, 30 and 60 minutes into the reaction. After three extensive washes in ice-cold 5% TCA followed by 3 rinses with ice-cold 95% ethanol, the air dried filter was counted in 2 ml of scintillation fluid (Ultima Gold Packard, Perkin Elmer). The rate of reaction was calculated. 1 TG unit is equivalent to the incorporation of 1 nmol of putrescine per hour at 37° C.

[2] = molecular target: T2, TG2 activity in HepG2 cell homogenate (Homo sapiens, UniProt P21980); assay: 3H putrescine incorporation TG activity assay in HepG2 cell homogenate; assay type: biochemical
T2 construct: endogenous in cells; host or cells: HepG2
T2 sequence (P21980 1-687): T1 sequence (P21980 1-687)
Protocol: A: Hep2G cells were lysed and 45 ug of protein mixed with 750 ng of IgG from AB1, DH2, DD9, BB7, DC1 and EH6 for 20 minutes. This was subsequently assayed using the ^3H Putrescine incorporation TG activity assay with sampling over 1 hour. The rate of reaction was calculated and expressed as a percentage of the same lysate incubated with a random antibody (MAB002). Data represents the mean percentage inhibition ±SEM from 2 separate experiments done in duplicate. *p<0.05
HepG2 cells were kindly supplied by Richard Ross (University of Sheffield). Cells were routinely grown at 37° C. in a 95% humidified atmosphere of 5% CO2 in DMEM/4.5 g per liter glucose supplemented with 10% foetal calf serum (FCS), 100 IU penicillin and 100 μg/ml streptomycin, 2 mM I-glutamine (all GIBCO). Two million cells were seeded on a 10 cm dishes and grown for 48 hours. Cells were lysed in 250 μl of STE buffer (0.32M sucrose, 5 mM Tris, 1 mM EDTA containing protease inhibitors Phenylmethylsulphonyl fluoride (1 mM), benzamidine (5 mM), and leupeptin (10 μg/ml) and sonicated on ice to produce a cell lysate usable in TG2 activity assay.
The same protocol was used to assess TG inhibition in cell lysates by replacing the 25 μl of recombinant protein with 25 μl of cell lysate.

[3] = molecular target: T3, extracellular TG2 in human HK-2 cells (Homo sapiens, UniProt P21980); assay: Extracellular TG activity in HK-2 cells, biotin cadaverine incorporation into fibronectin (Example 1); assay type: cell-based
T3 construct: endogenous in cells; host or cells: HK-2 (kidney proximal tubular epithelium)
T3 sequence (P21980 1-687): T1 sequence (P21980 1-687)
Protocol: HK2 cells were plated onto fibronectin and incubated for 2 hours in the presence of 0.1M biotin cadaverine with either 4 ng/μl of human anti-TG2 antibody (AB1) (part A), 4 ng/μl of human anti-TG2 antibody (DC1) (part B) or 400 μM of the site-specific pan TG inhibitor 1,3-Dimethyl-2-[(2-oxo-propyl)thio]imidazolium chloride. […] Changes in optical density were measured at 450 nm in a 96 well plate reader. Data represents mean OD at 450 nm corrected to 1 mg of cell protein. n=6 wells per experimental group.
Extracellular TG activity was measured by modified cell ELISA. HK-2 epithelial cells were harvested using 0.1M EDTA or 0.25% trypsin/EDTA and plated at a density of 8×10^4 cells/well in serum free medium onto a 96 well plate that had been coated overnight with 100 μl/well of fibronectin (5 μg/ml in 50 mM Tris-HCl pH 7.4) (Sigma, Poole UK). Cells were allowed to attach for 2.5 h at 37° C. in the presence of the 0.1 mM biotin cadaverine [N-(5 amino pentyl biotinamide) trifluoroacetic acid] (Molecular Probes, Eugene Oreg., USA). Plates were washed twice with 3 mM EDTA/PBS and cells removed with 0.1% (w/v) deoxycholate in 5 mM EDTA/PBS. The supernatant was collected and used for protein determination. […] The reaction was stopped with 50 μl 2.5 M H2SO4 and the absorbance read at 450 nm.

[4] = molecular target: T4, HepG2 cell lysate proteins (Homo sapiens, UniProt P21980); assay: Western blot of HepG2 lysate immunoprobed with AB1; assay type: binding; details: 25 μg of lysate
T4 construct: endogenous in cells; host or cells: HepG2
T4 sequence (P21980 1-687): T1 sequence (P21980 1-687)
Protocol: B: HepG2 cells were exposed to increasing glucose concentrations for 96 hours to up regulate TG2 expression. Cells were harvested, lysed and 25 ug of lysate fractionated by SDS-PAGE, western blotted and then immunoprobed with a 1 ng/ml solution of AB1 IgG using a chemiluminesant end point.
Confirmation of TG2 core protein synthesis as well as TG2 and TG2 core reactivity levels following immunisation were all measured by western blotting. Recombinant proteins (10 to 80 ng) were loaded on a 10% (w/v) polyacrylamide denaturing or non-denaturing gel as required and transferred onto PVDF membranes (Transblot SD, Biorad, UK) for one hour at 100 V. Membranes were blocked overnight at 4° C. with 3% (w/v) BSA in TBS/0.1% (v/v) Tween 20. The membranes were then washed and probed with monoclonal mouse anti-transglutaminase antibodies in TBS/Tween containing 1% BSA. For proof of recombinant TG2 core protein and as a positive control for antibody screening the commercial antibody Cub7402 (neomarkers) was used at a 1:1000 dilution. Binding of primary antibody was detected with the anti-mouse gamma-chain-HRP linked secondary antibody (Sigma, Poole, UK). Bands were visualised using ECL chemiluminescent detection system (Amersham, UK).

B1: AB1: murine monoclonal anti-TG2 IgG, Group 1 (epitope amino acids 304 to 326); VH and VK in FIGS. 7 and 18 (antibody, V domains shown)
VH: EVQLVESGGGLVKPGGSLKLSCAASGFTLSSSAMSWVRQTPDRRLEWVATISVGGGKTYYPDSVKGRFTISRDNAKNTLYLQMNSLRSEDTAMYYCAKLISLYWGQGTTLTVSS
VL: DIKMTQSPSSMYASLGERVTITCKASQDINSYLTWFQQKPGKSPKTLIYRTNRLFDGVPSRFSGSGSGQDFFLTISSLEYEDMGIYYCLQYDDFPYTFGGGTKLEIK
IC50 against human TG2 ([1]; amount of IgG in the reaction that would inhibit 1 ng of TG2, 100 ng human TG2): 0.011 µg/mL | hybridoma supernatant ability to inhibit TG2 activity ([1]; initial screen of conditioned medium, 100 ng of TG2): able to inhibit TG2 activity | inhibition of TG2 in human Hep2G cells (in words) [2]: able to inhibit TG2 successfully | inhibition of TG2 activity in HepG2 homogenate ([2]; 0.5 μg of antibody, 45 ug lysate protein): 70% | inhibition of extracellular TG activity ([3]; 4 ng/ul in the culture media): 60% | inhibition of extracellular TG2 in human HK-2 cells (in words) ([3]; applied to the culture media): able to inhibit TG2 successfully | off target association in HepG2 lysate [4]: no off target association
